The results in this text go back to patent US6407216 (Genentech, dated 2002).

Assay [1] has as its target T1, rat Smoothened (rSmo), Flag epitope tagged, expressed on transfected cells (rat, UniProt P97698 33-793).
T1 construct: residues 33-793 derived from that statement; Transiently expressed in COS-7 or 293 cells; co-immunoprecipitations were done from cell lysates; also called Flag tagged rSmo
Nature of the assay: staining of transfected cells exposed to the ligand. As to the method: (§1) Binding assays were conducted to test binding between cells expressing rSmo or dSmo and (1) epitope tagged SHH-N, (2) an IgG-SHH-N chimera, and (3) an epitope tagged Desert HH. For visualization of SHH binding, COS-7 cells (Genentech, Inc.) transiently expressing rSmo or mPatched (murine Patched) were exposed to epitope tagged SHH-N (2 hours at 4° C.), washed 4 times with PBS, then fixed and stained with a cy3-conjugated anti-human IgG (Jackson ImmunoResearch) (for IgG-SHH-N) or anti-Flag M2 antibody (Kodak/IBI) (for Flag-tagged SHH-N).

Assay [2] has as its target T2, Drosophila Smoothened (dSmo), epitope tagged, expressed on transfected cells (Drosophila, UniProt P91682 32-1036).
T2 construct: cDNA described in Alcedo et al; also called dros.smo
T2 sequence: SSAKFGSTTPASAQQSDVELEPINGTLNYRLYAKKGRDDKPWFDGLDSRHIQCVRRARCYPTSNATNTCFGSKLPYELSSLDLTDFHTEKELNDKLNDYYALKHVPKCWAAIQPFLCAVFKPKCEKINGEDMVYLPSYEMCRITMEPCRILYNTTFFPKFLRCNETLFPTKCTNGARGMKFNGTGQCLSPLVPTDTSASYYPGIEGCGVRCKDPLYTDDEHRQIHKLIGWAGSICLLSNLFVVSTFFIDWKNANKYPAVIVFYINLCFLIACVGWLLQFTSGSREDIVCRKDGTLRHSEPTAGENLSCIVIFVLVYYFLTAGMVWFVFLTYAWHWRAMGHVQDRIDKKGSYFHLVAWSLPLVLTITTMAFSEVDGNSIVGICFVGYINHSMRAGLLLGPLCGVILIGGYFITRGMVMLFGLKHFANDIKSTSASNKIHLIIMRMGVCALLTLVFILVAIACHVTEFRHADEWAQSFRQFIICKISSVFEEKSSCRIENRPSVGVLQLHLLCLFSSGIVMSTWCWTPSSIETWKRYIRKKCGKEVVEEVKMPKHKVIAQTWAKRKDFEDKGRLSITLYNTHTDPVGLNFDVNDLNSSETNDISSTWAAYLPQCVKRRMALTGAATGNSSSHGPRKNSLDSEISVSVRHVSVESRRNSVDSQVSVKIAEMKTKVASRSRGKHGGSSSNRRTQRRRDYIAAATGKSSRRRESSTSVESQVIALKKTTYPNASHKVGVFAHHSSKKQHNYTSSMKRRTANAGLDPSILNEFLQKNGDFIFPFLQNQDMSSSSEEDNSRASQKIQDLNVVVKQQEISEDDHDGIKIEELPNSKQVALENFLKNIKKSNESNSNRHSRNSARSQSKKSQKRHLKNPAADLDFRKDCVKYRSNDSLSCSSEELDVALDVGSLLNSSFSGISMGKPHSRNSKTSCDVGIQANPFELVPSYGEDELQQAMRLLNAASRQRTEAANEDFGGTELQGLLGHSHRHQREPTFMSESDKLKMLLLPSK
The description is as above. As to the method:
as §1

T1 sequence (P97698 33-793): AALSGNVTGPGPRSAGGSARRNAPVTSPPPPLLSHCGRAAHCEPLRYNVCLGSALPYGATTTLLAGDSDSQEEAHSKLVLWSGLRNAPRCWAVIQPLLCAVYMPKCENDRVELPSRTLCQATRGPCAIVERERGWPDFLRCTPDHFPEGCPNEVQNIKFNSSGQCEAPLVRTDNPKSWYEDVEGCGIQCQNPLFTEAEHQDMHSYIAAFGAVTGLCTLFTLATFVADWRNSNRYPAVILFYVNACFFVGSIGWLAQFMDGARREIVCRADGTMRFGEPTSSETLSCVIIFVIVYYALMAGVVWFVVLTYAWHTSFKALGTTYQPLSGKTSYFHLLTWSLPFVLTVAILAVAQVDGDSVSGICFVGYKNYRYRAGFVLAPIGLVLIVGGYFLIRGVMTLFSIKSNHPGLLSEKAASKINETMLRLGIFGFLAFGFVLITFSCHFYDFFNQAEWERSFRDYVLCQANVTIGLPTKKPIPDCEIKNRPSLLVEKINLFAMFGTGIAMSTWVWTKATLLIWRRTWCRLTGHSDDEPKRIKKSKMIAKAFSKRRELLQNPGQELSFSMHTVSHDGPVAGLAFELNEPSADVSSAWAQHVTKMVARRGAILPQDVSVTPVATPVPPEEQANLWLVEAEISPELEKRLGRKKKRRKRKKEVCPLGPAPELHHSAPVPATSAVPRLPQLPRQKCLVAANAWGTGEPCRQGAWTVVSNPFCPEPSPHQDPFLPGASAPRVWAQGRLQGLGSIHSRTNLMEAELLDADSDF

B1: epitope tagged Desert HH (ligand, not shown: small tags and cut ends)
chain: not shown
On to B1, for which the binding result in assay [1] and in assay [2] was “no binding” each time.
